Assay results: patent US20140088174A1

Assays:
[1] = target: ACVR1B (activin receptor type-1B), endogenous in mouse cells (mouse) (UniProt Q61271); assay: cell-based or functional assay
[2] = target: TGFBR1 (transforming growth factor, beta receptor I), endogenous in mouse cells (mouse) (UniProt Q64729); assay: cell-based or functional assay
UniProt Q64729, sequence (Q64729 30-503): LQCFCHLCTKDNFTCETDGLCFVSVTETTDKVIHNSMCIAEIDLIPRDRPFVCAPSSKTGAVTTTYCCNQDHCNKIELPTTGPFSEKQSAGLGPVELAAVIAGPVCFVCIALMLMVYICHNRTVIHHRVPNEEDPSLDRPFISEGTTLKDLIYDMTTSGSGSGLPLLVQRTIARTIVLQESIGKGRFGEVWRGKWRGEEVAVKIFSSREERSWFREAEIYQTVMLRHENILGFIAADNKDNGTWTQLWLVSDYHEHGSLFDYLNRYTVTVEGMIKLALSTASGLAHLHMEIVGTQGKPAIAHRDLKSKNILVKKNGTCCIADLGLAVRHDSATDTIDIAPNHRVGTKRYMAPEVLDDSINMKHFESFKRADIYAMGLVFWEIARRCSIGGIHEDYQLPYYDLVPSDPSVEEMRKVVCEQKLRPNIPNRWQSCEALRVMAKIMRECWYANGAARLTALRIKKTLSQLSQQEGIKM

UniProt Q61271, sequence (Q61271 24-505): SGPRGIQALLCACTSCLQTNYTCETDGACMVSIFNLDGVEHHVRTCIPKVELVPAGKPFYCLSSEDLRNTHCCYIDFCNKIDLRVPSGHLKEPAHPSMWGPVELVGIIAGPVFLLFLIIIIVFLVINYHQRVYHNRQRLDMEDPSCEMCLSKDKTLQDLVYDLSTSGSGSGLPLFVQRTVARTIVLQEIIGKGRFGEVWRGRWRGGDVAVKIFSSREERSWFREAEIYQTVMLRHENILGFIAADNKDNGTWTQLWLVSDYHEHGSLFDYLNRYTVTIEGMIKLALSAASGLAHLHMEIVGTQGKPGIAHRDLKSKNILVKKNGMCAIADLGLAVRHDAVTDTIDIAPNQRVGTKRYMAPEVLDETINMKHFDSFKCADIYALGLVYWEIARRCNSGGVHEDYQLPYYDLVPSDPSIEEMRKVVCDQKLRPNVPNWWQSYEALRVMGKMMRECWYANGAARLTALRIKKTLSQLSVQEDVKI

Which myostatin-induced CAGA luciferase in C2C12 cells upon siRNA knockdown of ACVR1B [1] does the source give for “myostatin (from UniProt O14793 267-375) (ligand)” here?
The myostatin-induced CAGA luciferase in C2C12 cells upon siRNA knockdown of ACVR1B was 5 folds.

What about the myostatin-induced luciferase in C2C12 upon A4E6 AON transfection (fold decrease) [1] of the same substance?
Its myostatin-induced luciferase in C2C12 upon A4E6 AON transfection (fold decrease) is 3.

What about the myostatin-induced CAGA luciferase in C3H10 T1/2 cells upon siRNA knockdown of TGFBR1 [2] of the same substance?
The myostatin-induced CAGA luciferase in C3H10 T1/2 cells upon siRNA knockdown of TGFBR1 was 2.5 folds.

And the myostatin-induced luciferase in C3H10 T1/2 cells upon TGFBR1 knockdown with A5E2 or A5E6 AON [2]?
Its myostatin-induced luciferase in C3H10 T1/2 cells upon TGFBR1 knockdown with A5E2 or A5E6 AON is 50%.

TGF-beta (ligand) was tested. Which TGF-beta-mediated CAGA luciferase activity in C2C12 and C3H10 T1/2 cells upon siRNA knockdown of TGFBR1 [2] did it give?
Its TGF-beta-mediated CAGA luciferase activity in C2C12 and C3H10 T1/2 cells upon siRNA knockdown of TGFBR1 is 3 folds.
